The nanobody polyreactivity screen of Harvey et al. (2022)

experiment: yeast display, Sf9 membrane polyspecificity reagent, FACS + sequencing; frameworks hold sequencing errors
In short: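 A synthetic nanobody library was expressed on Saccharomyces cerevisiae BJ5465 by galactose induction for 36–48 hours. The library was stained for 1 hour at 4 °C with 10% biotinylated, detergent-solubilized Sf9 membrane reagent and enriched with streptavidin microbeads before FACS. Low and high (top ~1%) gates were set on anti-HA fluorescence for expression and streptavidin fluorescence for reagent binding, and each polyreactivity label reflects the gate of origin.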

| Sequence | polyreactivity (PSR sort gate) |
| --- | --- |
| QVQLVESGGGLVQAGGSLRLSCAASGRIFLYNAMGWYRQAPGKERELVAVISSNGGRTYYADSVKGRFTISRDNAKNTVYLQMNSLKPEDTAVYYCAAVQHYVTHMDYWGQGTQVTVSS | low polyreactivity |
| QVQLVESGGGLVQAGGSLRLSCAASGRIFLYNTMGWYRQAPGKERELVARISWSGGSTKYADSVKGRFTISRDNAKNTVYLQMNSLKPEDTAVYYCNAGYFTEYNSWGQGTQVTVSS | high polyreactivity |
| QVQLVESGGGLVQAGGSLRLSCAASGRIFLYYAMGWYRQAPGKERELVATISSGGSTHYADSVKGRFTISRDNAKNTVYLQMNSLKPEDTAVYYCAAYGYGWGLEPSTTEMDYWGQGTQVTVSS | low polyreactivity |
| QVQLVESGGGLVQAGGSLRLSCAASGRIFLYYTMGWYRQAPGKERELDAAITRSGGSTYYADSVKGRFTISRDNAKNTVYLQMNSLKPEDTAVYYCNRAYVRYVPMNYWGQGTQVTVSS | high polyreactivity |
| QVQLVESGGGLVQAGGSLRLSCAASGRIFNAYAMGWYRQAPGKERELVAAISSIGGRTYYADSVKGRFTISRDNAKNTDYLQMNSLKPEDTAVYYCAASRRSRQYRYDYWGQGTQVTVSS | high polyreactivity |
| QVQLVESGGGLVQAGGSLRLSCAASGRIFNFYAMGWYRQAPGKERELVAAITRGGSTYYADSVKGRFTISRDNAKNTVYLQMNSLKPEDTAVYYCNALNRYYDGDYYYWGQGTQVTVSS | high polyreactivity |
| QVQLVESGGGLVQAGGSLRLSCAASGRIFNGYAMGWYRQAPGKERELVAAITTSGGSTYYADSVKGRFTISRDNAKNTVYLQMNSLKPEDTAVYYCAKYYPRYAYDYWGQGTQVTVSS | low polyreactivity |
| QVQLVESGGGLVQAGGSLRLSCAASGRIFNHNDMGWYRQAPGKERELVAAIDGSDSSTYYADSVKGRFTISRDNAKNTVYLQMNSLKTEDTAVYYCNADTNWLYTTGKYDYWGQGTQVTVSS | low polyreactivity |
| QVQLVESGGGLVQAGGSLRLSCAASGRIFNIYAMGWYRQAPGKERELVAAIRGRGGSTYYADSVKGRFTISRDNAKNTVYLQMNSLKPEDTAVYYCAADSGPFYSKTQTRYGYWGQGTQVTVSS | high polyreactivity |
| QVQLVESGGGLVQAGGSLRLSCAASGRIFNIYAMGWYRQAPGKERELVAAISGSGGRTSYADSVKGRFTISRDNAKNTVYLQMNSLKPEDTAVYYCAADYSYYTSFRYDYWGQGTQVTVSS | low polyreactivity |
| QVQLVESGGGLVQAGGSLRLSCAASGRIFNLYAMGWYRQAPGKERELVAAISYSGGRTYYADSVKGRFTISRDNAKNTVYLQMNSLKPEDTAVYYCNTVRGSVRQAGVGYDYWGQGTQVTVSS | high polyreactivity |
| QVQLVESGGGLVQAGGSLRLSCAASGRIFNLYAMGWYRQAPGKERELVAGIRWSTGSTYYADSVKGRFTISRDNAKNTVYLQMNSLKPEDTAVDYCAVRYYCSGRYYYTYYSWGQGTLVTVSS | high polyreactivity |
| QVQLVESGGGLVQAGGSLRLSCAASGRIFNPNGMGWYRQAPGKERELVAVITRSGTSTYADSVKGRFTISRDNAKNTVYLQMNSLKPEDTAVYYFATRYRWTPYDYWGQGTQVTVSS | low polyreactivity |
| QVQLVESGGGLVQAGGSLRLSCAASGRIFNPYVMGWYRPAPGKERELVAAISSGGRTYYADSVKGRFTISRDNAKNTVYLQMNSLKPEDTTVYYCAREQYRRYSGYGYWGQGTQVTVSS | high polyreactivity |
| QVQLVESGGGLVQAGGSLRLSCAASGRIFNQYCMGWYRQAPGKERELVAAIRSGDSTNYADSVKGRFTISRDNAKNTVYLQMNSLKPEDTAVYYCARDRPGDYAGYDYWGQGTQVTVSS | low polyreactivity |
| QVQLVESGGGLVQAGGSLRLSCAASGRIFNQYGMGWYRQAPGQEMELVAAIRSGDSTNYADSVKGRFTISRDNAKNTVYLQMNSLKPEVTAVYYCARDRPGDYAGYDYWGQGTEVTVSS | low polyreactivity |
| QVQLVESGGGLVQAGGSLRLSCAASGRIFNRNAMGWYRQAPGKERELVAAITRGGRTNYADSVKGRFTISRDNAQNTVYLQMNSLKPEDTAVYYCAAAYYGSHGRYDYWVQGTQVTVSS | high polyreactivity |
| QVQLVESGGGLVQAGGSLRLSCAASGRIFNRNVMGWYRQAPGKERELVAAISYGTGSTYYADSVKGRFTISRDNAKNTVYLQMNSLKPEDTAVYYCATRYRVRDDGEYDYWGHGTQVTVSS | high polyreactivity |
| QVQLVESGGGLVQAGGSLRLSCAASGRIFNRYAMGLYSQAPGKERELVAAISYTGGRTYYADSVKGRFTISRDNAKNTVYLQRNCLTPEDTAVYYCNVYVIHWDFTTSSVRRFDYWGQGTQVNVSS | high polyreactivity |
| QVQLVESGGGLVQAGGSLRLSCAASGRIFNRYGMGWYRQAPGKERELVAAITWRGGNTYYADSVKGRFTISRDNAKNTVYLQMNSLKPEDTAVYYCAADGGYSAYFGAYDYWGQGTQVTVSS | high polyreactivity |
| QVQLVESGGGLVQAGGSLRLSCAASGRIFNSNTMGWYRQAPGKERELVAAITYSGGSTYYADSVKGRFSISRDNAKNTVYLQMNSLKPEDTAVYYCAASYYYGRRYDYWGQGTQVTVSS | low polyreactivity |
| QVQLVESGGGLVQAGGSLRLSCAASGRIFNSYAMGWYRQAPGKERELVAAISSGGSTYYADSVKGRFTFSRDNAKNTVYLQMNSLKPEDTAVYYCADRIWTGRGRKLGYGYDYWGQGTQVTVSS | low polyreactivity |

| Sequence | polyreactivity (PSR sort gate) |
| --- | --- |
| QVQLVESGGGLVQAGGSLRLSCAASGRIFNVNALGWYRQAPGKERELVAAINWSGGRTYYADSVKGRFTISRDNAKNTVYLQLNSLKPEDTAVYYCAADTRYPYRAYDYWGQGTQVTVAS | high polyreactivity |
| QVQLVESGGGLVQAGGSLRLSCAASGRIFNVYAMGWYRQAPGKERELVASITSAGSTYYADSVKGRFTISRDNAKITVYLQMNSLKPEDTAVYYCAADSYSVYYYTYDSWGQGTQVTVSS | low polyreactivity |
| QVQLVESGGGLVQAGGSLRLSCAASGRIFNVYAMGWYRQAPGKERELVASITSAGSTYYADSVKGRFTISRDNAKNTVYLQMNSLKPEDTPVYDCAADSYSVYYYTYDSWGQGTQVTVSS | low polyreactivity |
| QVQLVESGGGLVQAGGSLRLSCAASGRIFNYNAMGWYRQAPGKEREFVATISGRAGRTYYADSVKGRFTISRDNAKNTVYLQMNSLKPEDTAVYYCNAGQWRYPGLYYYWGQGTQVTVSS | high polyreactivity |
| QVQLVESGGGLVQAGGSLRLSCAASGRIFNYYAMGWYRQAPGKERELVAAINSGGSTYADSVKGRFTISRDNAKNTVYLQMNSLKPEDTAVYYSAKDGQLQSGRERPSGYDHWGQGTQVTVSS | low polyreactivity |
| QVQLVESGGGLVQAGGSLRLSCAASGRIFPDNTLGWYRQAPGKERELVAVITYSGGSTYYADSVKGRFTISRDNAKNTVYLQMNSLKPEDTAVYYCAARDYYIWFAEVDSWGQGTQVTVSS | low polyreactivity |
| QVQLVESGGGLVQAGGSLRLSCAASGRIFPGNAMGGYRQAPGKERELVATISRIGGSTYADSVKGRFTISRDNAKNTVYLQMNSLKPEDTAVYYCAKTWVSRDVEYDYWGQGTQVTVSS | low polyreactivity |
| QVQLVESGGGLVQAGGSLRLSCAASGRIFPGNAMGWYRQAPGKEREFVAAINTRGGITYYADSVKGRFTISRDNAKNTVYLQMNSLKPEDTAVYYCARTYYPVDGEYDYWGQGTQVTVSS | low polyreactivity |
| QVQLVESGGGLVQAGGSLRLSCAASGRIFPGYAMGWYRQAPGKERELVAAISGSGVRTYYADSVKGRFTISRDNAKNTFYLQMNSLKPEDTAVYYCAADSKIRTKLDYWGQGTQVTVSS | low polyreactivity |
| QVQLVESGGGLVQAGGSLRLSCAASGRIFPGYAMGWYRQAPGKERELVAGITWRTARTYYADSVKGRFTISRDNAKNTVYLQMNSLKPEDTAVYYCAAKYARYGRHVIFDYWGQGTQVTVSS | high polyreactivity |
| QVQLVESGGGLVQAGGSLRLSCAASGRIFPGYAMGWYRQAPGKERELVASIRWSGDSTYYADSVKGRFTISRDNAKNTVYLQMNSLKPEDTAVYYCNRRWYRGDYWGQGTQVTVSS | low polyreactivity |
| QVQLVESGGGLVQAGGSLRLSCAASGRIFPHYAMGWYRQAPGKERELVAAISRSGVSTYYADSVKGRFTISRDNAKNTVYLQMNSLKPEDTAVYYCNIVRYSFLYSVTYNYWGQGTQVTVSS | high polyreactivity |
| QVQLVESGGGLVQAGGSLRLSCAASGRIFPLYTMGWYRQAPGKERELVAAITSIGGSTYYADSVKGRFTISRDNAKNTVYLQMNSLKPEDTAVYYCNAQYRPLTSWYKMDYWGQGTQVTVSS | high polyreactivity |
| QVQLVESGGGLVQAGGSLRLSCAASGRIFPNAMGWYRQAPGKERELVAAISWSGVTTTYADSVKGRFTISRDNAKNTVYLQMNSLKPEDTAVYYCAARYWAYGYWGQGTQVTVSS | high polyreactivity |
| QVQLVESGGGLVQAGGSLRLSCAASGRIFPPNAMGWSRQAPGKERELVAAITRGGSTYYADSVKGRFTISRDNAKNTVYLQMNSLKPEDTAVYYCATVPWYIKVGQKRNDYWGQGTQVTVSS | high polyreactivity |
| QVQLVESGGGLVQAGGSLRLSCAASGRIFPPNAMGWYRQAPGKERELVAAITRGGSTNYADSVKGRFTISRDNAKNTVYLQMNSLKPEDTAVYYCAARGLRRQAPFYYWGQGTQVTVSS | high polyreactivity |
| QVQLVESGGGLVQAGGSLRLSCAASGRIFPPNAMGWYRQAPGKERELVAGITPSGDTTYYADSVKGRFTISRDNAKNTVYIQMNSLKPEDTAVYYCAKDEVYADDRSALFDYWGQGTQVTVSS | low polyreactivity |
| QVQLVESGGGLVQAGGSLRLSCAASGRIFPPNAMGWYRQAPGKERELVAGITSSGDTTYYADSVKGRFTISRDNAKNTDYLQMNSLKPEDTAVYYCAKDEVYADDRSALFDYWGQGTQVTVSS | low polyreactivity |
| QVQLVESGGGLVQAGGSLRLSCAASGRIFPPYGMGWYRQAPGKERELVAGITSDGSTNYADSVKGRFTISRDNAKNTVYLQMNSLKPEDTAVYFCAADQGSWYYYPVYYYGGDYWGQGTQVTVSS | low polyreactivity |
| QVQLVESGGGLVQAGGSLRLSCAASGRIFPRNVMGWYRQAPGKERELVAAISSRGTRTYYADSVKGRFTISRDNAKNTVYLQMYSLKPEDTAVYYCAADGPYEGYDYWGQGTQVTVSS | high polyreactivity |
| QVQLVESGGGLVQAGGSLRLSCAASGRIFPRYAMGWYTQAPGKERELVAAITTGGSTYADSVKGRFTISRDNAKNTVYLQMNSLKPEDTAVYYCGVDGYVAFSPDRNNYWGQGTQVTVSA | low polyreactivity |
